These results are taken from the nanobody polyreactivity screen of Harvey et al. (2022).

A short description of this data set: yeast display, Sf9 membrane polyspecificity reagent, FACS + sequencing; frameworks hold sequencing errors. The gist of the method:
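Using colony PCR, genes from sorted yeast display clones were amplified, then sequenced on MiSeq at 2 × 250 and filtered by CDR length. The clones had been stained with 10% biotinylated, detergent-solubilized Sf9 membrane reagent for 1 hour at 4 °C and sorted by FACS into low and high (top ~1%) gates on anti-HA and streptavidin fluorescence. Polyreactivity labels come from the gate of origin.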
As to “QVQLVESGGGLVQAGGSLRLSCAASGRILDANDMGWYRQAPGKERELVAGINSGGSTYYADSVKGRFTISRDNAKNTVYLQMNSLKPEDTAVYYCAAGGVSAKYDYWGQGTKVTVSS”, the “polyreactivity (PSR sort gate)” value is recorded as “low polyreactivity”.

Turning to “QVQLVESGGGLVQAGGSLRLSCAASGRILDFNAMGWYRQAPGKERELVAAINNSGGSTYYADSVKGRFTISRDNAKNTVYLQMNSLKPEDTAVYYCARYAIWKRGYWGQGTQVNVSS”, the “polyreactivity (PSR sort gate)” value is listed as “low polyreactivity”.

In the case of “QVQLVESGGGLVQAGGSLRLSCAASGRILDKYAMGWYRQAPGKERELVARIRFSGGDTYADSVKGRFTISRDNAKNTVYLQMNSLKPEDTAVYYCNKDRRNRWYAFDYWGQGTQVTVSS”, the “polyreactivity (PSR sort gate)” value was “low polyreactivity”.

In the case of “QVQLVESGGGLVQAGGSLRLSCAASGRILDVNDMGWYRQAPGKERELVAAISSGTNTYYADSVKGRFTISRDNAKNTVYLQMNSLKPEDTAVYYCAADYLGLSDADDYDYWGQGTQVTVSS”, the “polyreactivity (PSR sort gate)” value is “low polyreactivity”.

Take “QVQLVESGGGLVQAGGSLRLSCAASGRILFHYAMGWYRRAPGKERELVAAITWRGGGTHYADSVKGRFTISRDNAKNTVYLQKNSLKPEDTAVYYCNAEYNGYFSRSGFYYWGQGTQVTVSS”: the “polyreactivity (PSR sort gate)” value is on record as “low polyreactivity”.

Take “QVQLVESGGGLVQAGGSLRLSCAASGRILFSYGAMGWYRQAPGKERELVAAISYSGGSTYYADSVKGRFTISRDNAKNTVYLQMNSLKPEDTAVYYCAASSIVYRHYYWGQGTQVTVSS”: the “polyreactivity (PSR sort gate)” value was “high polyreactivity”.

Regarding “QVQLVESGGGLVQAGGSLRLSCAASGRILGAYAMGWYRQAPGKERELVASISSGGRTYYADSVKGRFTISRDNAKNTVYLQINSLKQEDTAVYYCAAEYFIWSYPRYEYWGQGTQVNVSS”, the “polyreactivity (PSR sort gate)” value is “high polyreactivity”.

Take “QVQLVESGGGLVQAGGSLRLSCAASGRILGDYAMGWYRQAPGKEREFVAAIDYNGGSTNYADSVMGRFTISRDNAKNTVYLQMNSLKPEDTAVYYCAKTDGFYRGYGYWGQGTQVTVSS”: the “polyreactivity (PSR sort gate)” value is “low polyreactivity”.

As for “QVQLVESGGGLVQAGGSLRLSCAASGRILGKNTMGWYRQAPGKEREFVAAISASGGRTYYADSVKGRFTISRDNAKNTVYLQMNSLKPEDTAVYYCAAARSRYSYATGFDYWGQGTQVTVSS”, the “polyreactivity (PSR sort gate)” value is recorded as “high polyreactivity”.

Take “QVQLVESGGGLVQAGGSLRLSCAASGRILGKYAMGWYRQSPGKERELVAAIRLRGGSTYYADSVKGRFTISRDNAKNTLYLQMNSLKPEDTAVYYCAARFWDRSQAYNYWGQGTQVTVSS”: the “polyreactivity (PSR sort gate)” value is “high polyreactivity”.

For “QVQLVESGGGLVQAGGSLRLSCAASGRILGYNAMGWYRQAPGKERELVAAITSGGSTYYADSVKGRFTISRDNAKNTVYLQMNRLKPEDTAVYYCAKRAFSYVGGQQDRNENYYYWGQGTQVTVSS”, the “polyreactivity (PSR sort gate)” value is listed as “high polyreactivity”.

Take “QVQLVESGGGLVQAGGSLRLSCAASGRILIPYAMGWYRQAPGKEREFVAGITGSGGRTYYADSVKGRFTISRDNAKNTVYLQMNSLKPEDTAVYYCDAVYYYSPTMYYWGQGTQVTVSS”: the “polyreactivity (PSR sort gate)” value is listed as “low polyreactivity”.

With “QVQLVESGGGLVQAGGSLRLSCAASGRILKRNSMGWYRQAPGKERELVAAITSSGGSTYADSVKGRFTISRDNEKNTVYLQMNSLKPEDTAVYYCNAGYKRPWSHKYYWGQGTQVTVSS”, the “polyreactivity (PSR sort gate)” value is on record as “low polyreactivity”.

As for “QVQLVESGGGLVQAGGSLRLSCAASGRILKVYAMGWSRQAPGKERELVAAITSGSSTYADSVKGRFTISRDNAKNTVYLQMNSLKPEDTAVYYCAAVFWVDILPGDYWGQGTQVTVSS”, the “polyreactivity (PSR sort gate)” value is “low polyreactivity”.

Turning to “QVQLVESGGGLVQAGGSLRLSCAASGRILKWNAMGWYRQAPGKERELVAAISQSGGSTYYADSVKGRFTISRDNAKNTVYLQMNSLKPEDTAVYYCATSGDWWGFRYDYWGQGTQVTVSS”, the “polyreactivity (PSR sort gate)” value is listed as “low polyreactivity”.

“QVQLVESGGGLVQAGGSLRLSCAASGRILKYYAMGWYRQAPGKERELVAAISGSSGSTYYADSVKGRFTISRDNAKNTVYLQMNSLKPEDTAVYYCAAQGRDSTPHGYWGQGTQVTVSS”: the “polyreactivity (PSR sort gate)” value was “high polyreactivity”.

Regarding “QVQLVESGGGLVQAGGSLRLSCAASGRILLRNVMGWYRQAPGKERELVAVITRTGITYYADSVKGRFTISRDNAKNTVYLQMNSLKPEDTAVYYCAAGLPKYEHDYWGQGTQVNVSS”, the “polyreactivity (PSR sort gate)” value was “low polyreactivity”.

For “QVQLVESGGGLVQAGGSLRLSCAASGRILNYYTMGWYRQAPGKERELVAAISGSDGNTYYADSVKGRFTISRDNAKNTVYLQKNSLKPEDTAVYYCSADLYDEWGQGTQVTVSS”, the “polyreactivity (PSR sort gate)” value is “low polyreactivity”.

For “QVQLVESGGGLVQAGGSLRLSCAASGRILPRNAMGWYRQAPGKERELVAAISWDGGSTYYADSVKGRFTISRDNAKNTDYLHMNSLKPEDTAVYYCATDYPSLHRGMDYWGQGTQVTVSS”, the “polyreactivity (PSR sort gate)” value is given as “low polyreactivity”.

“QVQLVESGGGLVQAGGSLRLSCAASGRILPRNAMGWYRQAPGKERELVAGISSEGSTNYADSVKGRFTISRDNAKYTVYLQMNSLKPEDSAVYYCAADGVYDPNLYGYWGQGTQVNVSS”: the “polyreactivity (PSR sort gate)” value was “low polyreactivity”.

For the sequence “QVQLVESGGGLVQAGGSLRLSCAASGRILPYYAMGWYRQAPGKERELVAAITSGGSTYYADSVKGRFTISRDNAKNTVYLQMNSLKPEDTAVYYCATDVDKSLYDYWGQGTQVTVSS”, the “polyreactivity (PSR sort gate)” value was “low polyreactivity”.

Regarding “QVQLVESGGGLVQAGGSLRLSCAASGRILRDYDMGWYRQSPGKERELVAAINWSDGSTYYADSVKGRFTISRDNAKNTVYLQMNSLKPEDPAVYYCAASRWRPLERGTTWLHDYWGQGTQVTVSS”, the “polyreactivity (PSR sort gate)” value is “low polyreactivity”.

As for “QVQLVESGGGLVQAGGSLRLSCAASGRILRFYAMGWYRQAPGKERELVATISRSGGSTYYADSVKGRFTISRDNAKNTVYLQMNSLKPEDTAVYYCNAFLYARQRDRWARYDYWGQGTQVTVSS”, the “polyreactivity (PSR sort gate)” value is “high polyreactivity”.

As for “QVQLVESGGGLVQAGGSLRLSCAASGRILRGYAMGWYRQAPGKERELVAAISWNGGSTYYADSVKGRFTISRDNAKNTVYLQMNSLKPEDTAVYYCAVVFNPHRYTGVLAGYDYWGQGTQVTVSS”, the “polyreactivity (PSR sort gate)” value is listed as “high polyreactivity”.

As for “QVQLVESGGGLVQAGGSLRLSCAASGRILRHNAKGWYRQAPGKERELVAAITNGGSTYYADSVKGRFTISRDNAKNTVYLQMNCLKPEDTAVYYCAARTRLAQYSRGRYRYDYWGQGTQVTLSS”, the “polyreactivity (PSR sort gate)” value is “high polyreactivity”.

On to “QVQLVESGGGLVQAGGSLRLSCAASGRILRQYAMGWYRQAPGKERELVARISYSGGSTYYADSVKGRFTISRDNAKNTVYLQMNSLKPEDTAVYYCAARRPYKYDYWGQGTQVTVSS”, for which the “polyreactivity (PSR sort gate)” value is “high polyreactivity”.

On to “QVQLVESGGGLVQAGGSLRLSCAASGRILRVNAMGWYRQAPGKERELVATITFRGGSTYYADSVKGRCTISRDNAKNTVYLQMNSLKPEDTAVYSCAKVIYRYNETYDYWGQGTQVTVSS”, for which the “polyreactivity (PSR sort gate)” value is recorded as “high polyreactivity”.

As for “QVQLVESGGGLVQAGGSLRLSCAASGRILRYNALGWYRQAPGTERELVASISGNGGSTYYADSVKGRVTISRDNAKNTVYLQMNSLKPEDTALYYCNKYYYSSRGQKEYDYWGQGTQVTVSS”, the “polyreactivity (PSR sort gate)” value is “low polyreactivity”.

Regarding “QVQLVESGGGLVQAGGSLRLSCAASGRILRYNAMGCDRQAPGKERELVASISGNGGSTYYADSVKGRFTISRDNAKNTVYLQMNSLKPEDTAVYYCNKYSYSSRGQKEYDYWGQGTQVTVSS”, the “polyreactivity (PSR sort gate)” value is recorded as “low polyreactivity”.

With “QVQLVESGGGLVQAGGSLRLSCAASGRILRYNAMGWYRQAPGKERELVASISGNGGSTYYADSVKGRFTISRDNAKNTVYLQMKSLKPEDTAVYYCNKYYYSSRGQKEYDYWGQGTQVTVSS”, the “polyreactivity (PSR sort gate)” value is “low polyreactivity”.

On to “QVQLVESGGGLVQAGGSLRLSCAASGRILSFYVMGWYRQAPGKERELVAAIRRGGSTYYADSVKGRFTISRDNAKNTVYLQMNSLKPEDTAVYYCNARQRPPPYYYWGQGTQVTVSS”, for which the “polyreactivity (PSR sort gate)” value is “high polyreactivity”.

In the case of “QVQLVESGGGLVQAGGSLRLSCAASGRILSGNAMGWYRQAPGKERELVAAITNAAITKYADSVKGRFTISRDNAKNTVYLQMNSLKPEDTAVYYCATDRYAYKLYDYWGQGTQVTVSS”, the “polyreactivity (PSR sort gate)” value is reported as “low polyreactivity”.

Consider “QVQLVESGGGLVQAGGSLRLSCAASGRILSGYTMGGYRQAPGKERELVAAINWRGGTTYYADSVKGRFTISRDNAKHTVYLQMNSLKPEDTAVYYCDADYYYQAGFYYWGQGTQVTVSS”, for which the “polyreactivity (PSR sort gate)” value is “low polyreactivity”.

Turning to “QVQLVESGGGLVQAGGSLRLSCAASGRILSPYAMGWYRQAPGKERELVAVINTSGGRTYYADSVKGRFTISRDNAKNTVYLQMNSLKPEDTAVYYCAARERKVQYDYWGQGTQVTVSS”, the “polyreactivity (PSR sort gate)” value is given as “high polyreactivity”.

Consider “QVQLVESGGGLVQAGGSLRLSCAASGRILSTYARGWYRQAPGKETELVAAITRTSGSTYYADSVKGRFTISRDNAKNTVYLQMNSLKPEDTAVDYCAADTWLITWSGQYNSWGQGTQVTVSS”, for which the “polyreactivity (PSR sort gate)” value is given as “low polyreactivity”.

Consider “QVQLVESGGGLVQAGGSLRLSCAASGRILSYYPMGWYRQAPGKERELVAVIRRGASTYADSVKGRFTISRDNAKKTVYLQMNILKPEDTAVYYCAAADRDYTTFRYDYWGQGTQVTVSS”, for which the “polyreactivity (PSR sort gate)” value is on record as “low polyreactivity”.

Regarding “QVQLVESGGGLVQAGGSLRLSCAASGRILTLNAMGWYRPAPGKERELVASIRSTGRTYYADSVKWRFTISRDNAMNTVYLQMNSLKPEDTAVYYCAADTRYRYGAYPYYEYDYWGQGTQVTVSS”, the “polyreactivity (PSR sort gate)” value was “low polyreactivity”.

With “QVQLVESGGGLVQAGGSLRLSCAASGRILTYNTMGWYRQAPGKERELVAAITWRGGSTYYADSVKGRFTISRDNAKNTVYLQMNSLKPEDTAVYYCAKYVAFHYKQYDFNWGQGTQVTVSS”, the “polyreactivity (PSR sort gate)” value is reported as “high polyreactivity”.

Turning to “QVQLVESGGGLVQAGGSLRLSCAASGRILVHNAMGWYRQAPGKERELVAAITWSGGSTYYADSVKGRFTISRDNAKNTFYLQMNSLKPEDTAVYYCAAEQWRYDGSFTGYGYWGQGTQVTVSS”, the “polyreactivity (PSR sort gate)” value is “low polyreactivity”.

In the case of “QVQLVESGGGLVQAGGSLRLSCAASGRILVKNTMGWYRQAPGKERELVAAITSAGNTYYADSVKGRFTITRDNAKNSVYFQMNSLTPEATAVYYCAARNRTFFQPTYYYWGQGTQVTVSS”, the “polyreactivity (PSR sort gate)” value is “high polyreactivity”.

Regarding “QVQLVESGGGLVQAGGSLRLSCAASGRILVSYAMGWYRQAPGKERELVAAISRSGGSTYYADSVKGRFTISRDNAKNSVYLQMNSLKPEDSAVYYCNVYRFSRYDYWGQGTQVTVSS”, the “polyreactivity (PSR sort gate)” value was “high polyreactivity”.
